Assay [1] deals with T1, human GHRH receptor (Homo sapiens, UniProt Q02643).
T1 sequence (Q02643 23-423): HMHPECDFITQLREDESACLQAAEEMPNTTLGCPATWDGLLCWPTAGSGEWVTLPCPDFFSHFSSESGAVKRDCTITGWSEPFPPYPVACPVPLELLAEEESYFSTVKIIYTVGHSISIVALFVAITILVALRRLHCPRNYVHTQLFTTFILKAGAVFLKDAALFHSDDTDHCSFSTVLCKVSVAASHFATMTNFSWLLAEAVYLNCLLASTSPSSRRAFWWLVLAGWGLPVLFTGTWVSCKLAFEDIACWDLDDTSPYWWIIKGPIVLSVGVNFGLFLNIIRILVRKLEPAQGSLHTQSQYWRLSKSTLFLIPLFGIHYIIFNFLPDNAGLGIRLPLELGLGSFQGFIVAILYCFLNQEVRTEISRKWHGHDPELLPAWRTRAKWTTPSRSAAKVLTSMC
The assay can be described thus: Hit Hunter (DiscoveRx) cAMP agonist assay in cells expressing GHRH receptor. The class given is cell-based. To be noted: for In vitro potency / biological activity (in words): effect of Cys-PEG substitution compared with native peptide. As to the method:
For agonist determination, cells were incubated with sample to induce response. Media was aspirated from cells and replaced with 15 μL 2:1 HBSS/10 mM Hepes: cAMP XS+Ab reagent. […] Vehicle concentration was 1%. After appropriate compound incubation, assay signal was generated through incubation with 20 μL cAMP XS+ED/CL lysis cocktail for one hour followed by incubation with 20 μL cAMP XS+EA reagent for three hours at room temperature. Microplates were read following signal generation with a PerkinElmer Envision™ instrument for chemiluminescent signal detection. Compound activity was analyzed using CBIS data analysis suite (ChemInnovation, CA).

Assay [2] concerns Growth Hormone secretion. Kind of assay: GH release after subcutaneous injection of GHRH analogs in Sprague-Dawley rats (plasma GH ELISA). It is filed as in vivo. The following applies: female rats; for Growth hormone AUC (0-90 min): single subcutaneous dose 0.04 mg/kg, plasma GH, FIG. 1. From the text: Sprague-Dawley rats (female, weighing from 250 to 300 g) were obtained from Charles River Inc. Animals were used according to a protocol of the Animal Care Committee along with the principles of the Guide for the Care and Use of Experimental Animals of the Canadian Council on Animal Care. The animals were maintained on standard laboratory chow under a 12:12 light:dark cycle. They were kept in groups of 4 rats per cage. The animals were anesthetized with isoflurane 2.5%. A mid-section opening was made in the neck to expose the carotid artery. The carotid artery was canulated with polypropylene tubing (PE-50) to allow blood withdrawal. After surgical preparation, rats received a subcutaneous injection of GHRH analog (10-100 μg/kg) dissolved in 20 mM AcONa+5% mannitol at pH 5). Blood samples (400 μL/time point) were collected from 2-4 animals per group. […] Blood was collected into microtainer tubes containing K3EDTA, mixed and immediately centrifuged at 13,000 RPM in a desktop centrifuge for 2 minutes. The plasma was collected and placed into a screw cap Eppendorf™ tube and quickly frozen in liquid nitrogen. The samples were then kept at −80° C. until assayed. Determination of GH levels was performed as described below.
Rat and mouse plasma samples were vortexed carefully and centrifuged at 9,000 RPM for 2 min at 4° C. […] The remainder of the procedure was performed according to the manufacturer's instructions, and the data obtained were analyzed using GraphPad Prism™ software. […] Growth hormone levels were determined in timed-aliquots of blood and are depicted in FIG. 1. […]
The N-terminal part of the GHRH peptide is known to be buried in the extracellular loops and transmembrane domains of the GHRH receptor, and thus almost all of the amino acids in the N-terminal domain participate in high affinity binding of the GHRH peptide to the receptor. […] Briefly, peptides (0.04 mg/kg) were subcutaneously injected in female rats and growth hormone levels were determined in timed aliquots of blood drawn from the animals.
On the technique in general: An ELISA detects its analyte on a solid surface through an enzyme-linked reagent.

Non-standard residues stand in square brackets, D forms with d. No end group written: not given here. hArg = N=C(N)NCCCC[C@H](N)C(=O)O; Orn = NCCC[C@H](N)C(=O)O

Consider “YaDAIFTAC(Peg-40K)YROVLAQLSAROALQDILS(Har)-NH2 (Y[dA]DAIFTAC(PEG 40 kDa)YR[Orn]VLAQLSAR[Orn]ALQDILS[hArg]-NH2) [Analog 16, GHRH analog, about 40 kDa PEG on Cys9, C-terminal Har-NH2]”, for which the “In vitro potency / biological activity (in words)” value in assay [1] was “without loss of in vitro biological activity”.

In the case of “YaDAIFTASYROVLC(Peg-2K)QLSAROALQDILSKN-NH2 (Y[dA]DAIFTASYR[Orn]VLC(PEG 2 kDa)QLSAR[Orn]ALQDILSKN-NH2) [Analog 5, GHRH analog, Cys conjugated to about 2 kDa PEG at position 15]”, the “In vitro potency / biological activity (in words)” value in assay [1] was “reduced potency”.

As for `CC[C@H](C)[C@H](NC(=O)[C@H](C)NC(=O)[C@H](CC(=O)O)NC(=O)[C@H](C)NC(=O)[C@@H](N)Cc1ccc(O)cc1)C(=O)N[C@@H](Cc1ccccc1)C(=O)N[C@H](C(=O)N[C@@H](CC(N)=O)C(=O)N[C@@H](CO)C(=O)N[C@@H](Cc1ccc(O)cc1)C(=O)N[C@@H](CCCNC(=N)N)C(=O)N[C@@H](CCCCN)C(=O)N[C@H](C(=O)N[C@@H](CC(C)C)C(=O)NCC(=O)N[C@@H](CCC(N)=O)C(=O)N[C@@H](CC(C)C)C(=O)N[C@@H](CO)C(=O)N[C@@H](C)C(=O)N[C@@H](CCCNC(=N)N)C(=O)N[C@@H](CCCCN)C(=O)N[C@@H](CC(C)C)C(=O)N[C@@H](CC(C)C)C(=O)N[C@@H](CCC(N)=O)C(=O)N[C@@H](CC(=O)O)C(=O)N[C@H](C(=O)N[C@@H](CCSC)C(=O)N[C@@H](CO)C(=O)N[C@@H](CCCNC(=N)N)C(N)=O)[C@@H](C)CC)C(C)C)[C@@H](C)O` [GHRH1-29, reference compound], in assay [1] (Table 3, independent experiment), the “Max. response (%)” value was 112.97%.

Consider “YaDAIFTASYROVLAQLSAROALQDILC(Peg-2K)KN-NH2 (Y[dA]DAIFTASYR[Orn]VLAQLSAR[Orn]ALQDILC(PEG 2 kDa)KN-NH2) [Analog 1, GHRH analog, Cys conjugated to about 2 kDa PEG at position 28]”, for which the “Stimulation of GH secretion (in words)” value in assay [2] (subcutaneous 0.04 mg/kg, FIG. 1 / FIG. 2) was “potently stimulated GH secretion”.

In the case of “YaDAIFTASYROVLAQLSAROALQDC(Peg-2K)LSKN-NH2 (Y[dA]DAIFTASYR[Orn]VLAQLSAR[Orn]ALQDC(PEG 2 kDa)LSKN-NH2) [Analog 8, GHRH analog, Cys conjugated to about 2 kDa PEG at position 26]”, in assay [1], the “In vitro potency / biological activity (in words)” value is recorded as “reduced potency”.

As for “YaDAIFTAC(Peg-2K)YROVLAQLSAROALQDILSKN-NH2 (Y[dA]DAIFTAC(PEG 2 kDa)YR[Orn]VLAQLSAR[Orn]ALQDILSKN-NH2) [Analog 6, GHRH analog, Cys conjugated to about 2 kDa PEG at position 9]”, the “Growth hormone AUC (0-90 min)” value in assay [2] was 29075 ng/ml/90 min.

“YaDAIFTASYROVLAC(Peg-2K)LSAROALQDILSKN-NH2 (Y[dA]DAIFTASYR[Orn]VLAC(PEG 2 kDa)LSAR[Orn]ALQDILSKN-NH2) [Analog 9, GHRH analog, Cys conjugated to about 2 kDa PEG at position 16]”: the “In vitro potency / biological activity (in words)” value in assay [1] is “reduced potency”.

For the molecule “YaDAIFTASYROVLAQLSC(Peg-2K)ROALQDILSKN-NH2 (Y[dA]DAIFTASYR[Orn]VLAQLSC(PEG 2 kDa)R[Orn]ALQDILSKN-NH2) [Analog 4, GHRH analog, Cys conjugated to about 2 kDa PEG at position 19]”, the “In vitro potency / biological activity (in words)” value in assay [1] is on record as “reduced potency”.

Turning to “YaDAIFTAC(Peg-5K)YROVLAQLSAROALQDILS(Har)-NH2 (Y[dA]DAIFTACYR[Orn]VLAQLSAR[Orn]ALQDILS[hArg]-NH2; not fully specified (residue 9); printed as YaDAIFTAC(Peg-5K)YROVLAQLSAROALQDILS(Har)-NH2) [Analog 15, GHRH analog, 5K PEG on Cys9, C-terminal Har-NH2]”, in assay [1], the “In vitro potency / biological activity (in words)” value was “without loss of in vitro biological activity”.

With “YaDAIFTC(Peg-2K)SYROVLAQLSAROALQDILSKN-NH2 (Y[dA]DAIFTC(PEG 2 kDa)SYR[Orn]VLAQLSAR[Orn]ALQDILSKN-NH2) [Analog 7, GHRH analog, Cys conjugated to about 2 kDa PEG at position 8]”, the “In vitro potency / biological activity (in words)” value in assay [1] is recorded as “reduced potency”. Moreover, the “Growth hormone AUC (0-90 min)” value in assay [2] was determined as 15657 ng/ml/90 min.

For “YaDAIFTAC(Peg-2K)YROVLAQLSAROALQDILS-(Har)-NH2 (Y[dA]DAIFTAC(PEG 2 kDa)YR[Orn]VLAQLSAR[Orn]ALQDILS[hArg]-NH2) [Analog 10, GHRH analog, about 2 kDa PEG on Cys9, C-terminal Har-NH2]”, in assay [1] (Table 3 experiment, versus GHRH1-29), the “Fold more potent than the native peptide” value is given as about 14 fold.

The record behind these values is US9988428B2, “Pegylated bioactive peptides and uses thereof” (GRIFFON PHARMACEUTICALS INC., priority 2016, dated 2018).
